# Source: US20230383006A1 (ADIENNE S A, published 2023)
# B1: CDina26 (antibody, mouse IgG2b, kappa, V domains shown)
# VH: QVQLQQSGAELVKPGASVKLSCKASGYTFRSYDINWVRQRPEQGLEWIGWIFPGDGSTKYNEKFKGKATLTTDKSSSTAYMQLSRLTSEDSAVYFCARWTVVGPGYFDVWGAGTTVTVSS
# VL: QIVLTQSPAIMSASPGEKVTITCSASSSVSYMNWFQQKPGTSPKLWIYSTSNLASGVPARFSGSGSGTSYSLTISRMEAEDAATYYCQQRSSYPNTFGGGTKLEIKR
# notes: also called antibodies produced by the PD 12002 hybridoma cell line deposit; murine monoclonal antibody against CD26
# What was measured:
# [1] = target: T1, Matrix 3 discontinuous CLIPS peptides covering residues 226 to 252 of human CD26 (human, peptides fixed on a CLIPS scaffold through thiol side chains of cysteines); assay: CLIPS epitope mapping, discontinuous peptides, Matrix 3
# T1 construct: A set of peptide constructs from this range; also called protruding loop of CD26
# Text: The epitopes recognized by the CDina26 antibody produced by hybridoma cell line deposited as PD 12002 have been identified by CLIPS™ Epitope Mapping technology. See, e.g., U.S. Pat. Nos. 7,863,239 and 7,972,993, the disclosures of which are herein incorporated by reference in their entirety. Briefly, CLIPS™ technology structurally fixes peptides into defined three-dimensional structures. […] The CLIPS™ reaction takes place between bromo groups of the CLIPS™ scaffold and thiol side chains of cysteines. The reaction is fast and specific under mild conditions (Timmerman et al., J. Mol. Recognit. 2007; 20: 283-29).
# CLIPS™ library screening starts with the conversion of the human CD26 target protein into a library of overlapping peptide constructs, using a combinatorial matrix design. On a solid carrier, a matrix of linear peptides is synthesized, which are subsequently shaped into spatially defined CLIPS™ constructs. Constructs representing several parts of a discontinuous epitope in the correct conformation bind the antibody with high affinity, which is detected and quantified. […] Affinity information is used in iterative screens to define the sequence and conformation of epitopes in detail.
# [2] = target: Purified recombinant human CD26 (rhDipeptidyl peptidase IV; Creative BioMart; CAT #DPP4-116H) (human, UniProt P27487 29-766); assay: SPR (Biacore), 25 C, CDina26 captured on anti-IgG2b CM5 chip, human CD26 as analyte at 30-810 nM
# Experimental: Surface Plasmon Resonance system (Biacore®) was used to determine the affinity of CDina26 for human CD26 according to standard protocols. Affinity measurements were taken at 25° C., immobilizing on carboxymethyl dextran chip (CM5) 10.000 RU of an anti-IgG2b antibody (GE Healthcare, 22-0648-97 AC). CDina26 was prepared as stock in HBS-EP (0.01M HEPES, pH 7.4, 0.15M NaCl, 3 mM EDTA, 0.005% Surfactant P20) running buffer in a final concentration of 50 μg/ml, and for each experiment 2.000 RU were reversibly immobilized on the chip by injection with a flow of 10 μl/min in a period of 180 seconds.
# Purified recombinant human CD26 (rhDipeptidyl peptidase IV; Creative BioMart; CAT #DPP4-116H) was prepared in a stock concentration of 5.8×10^-6 M. CD26 was injected at increasing concentrations of 30×10⁻⁹, 90×10⁻⁹ M, 270×10⁻⁹ M and 810×10⁻⁹ M. The CD26 samples were injected with a flow of 10μl/minute; with HBS-EP buffer used as running buffer. A typical recording included a 3 minutes period of injection of the CD26 followed by a period of 8 minutes of dissociation. The raw binding data was analyzed according to standard methods. CM5 chip with immobilized anti-IgG2b antibody was regenerated by injection of 10 mM Glycine-HCl pH 1.7 with a flow of injection of 20 μl/min and for a period of 60 seconds.
# [3] = target: T2, Porcine Antigen (purchased from Sigma CAT #D 7052) (porcine, UniProt P22411 38-766, limits assumed); assay: Biacore, CDina26 captured by an immobilized polyclonal anti-mouse Ig antibody, Porcine Ag injected in solution
# T2 construct: Bought soluble protein; also called porcine CD26; Porcine Antigen (Ag)
# [4] = target: T3, Human Antigen (purchased from Sigma CAT #D4943) (human, UniProt P27487 29-766, limits assumed); assay: Biacore T100, CDina26 captured by immobilized polyclonal anti-mouse Ig antibody, human antigen injected at two concentrations
# T3 construct: Bought soluble protein injected in solution in Biacore; also called human CD26; Human Antigen (Ag)
# [5] = target: T4, porcine CD26 expressed on minipig T lymphocytes (porcine (minipig), UniProt P22411 1-766); assay: multiparametric flow cytometry on lymphocytes from minipig peripheral blood, CD3 (FL1-H) against CD26/CDina26 (FL2-H)
# T4 construct: whole, on cells; Native CD26 on lymphocytes isolated from minipig peripheral blood; also called minipig CD26; Porcine Antigen as a transmembrane protein expressed on T lymphocytes
# T4 sequence (P22411 whole entry): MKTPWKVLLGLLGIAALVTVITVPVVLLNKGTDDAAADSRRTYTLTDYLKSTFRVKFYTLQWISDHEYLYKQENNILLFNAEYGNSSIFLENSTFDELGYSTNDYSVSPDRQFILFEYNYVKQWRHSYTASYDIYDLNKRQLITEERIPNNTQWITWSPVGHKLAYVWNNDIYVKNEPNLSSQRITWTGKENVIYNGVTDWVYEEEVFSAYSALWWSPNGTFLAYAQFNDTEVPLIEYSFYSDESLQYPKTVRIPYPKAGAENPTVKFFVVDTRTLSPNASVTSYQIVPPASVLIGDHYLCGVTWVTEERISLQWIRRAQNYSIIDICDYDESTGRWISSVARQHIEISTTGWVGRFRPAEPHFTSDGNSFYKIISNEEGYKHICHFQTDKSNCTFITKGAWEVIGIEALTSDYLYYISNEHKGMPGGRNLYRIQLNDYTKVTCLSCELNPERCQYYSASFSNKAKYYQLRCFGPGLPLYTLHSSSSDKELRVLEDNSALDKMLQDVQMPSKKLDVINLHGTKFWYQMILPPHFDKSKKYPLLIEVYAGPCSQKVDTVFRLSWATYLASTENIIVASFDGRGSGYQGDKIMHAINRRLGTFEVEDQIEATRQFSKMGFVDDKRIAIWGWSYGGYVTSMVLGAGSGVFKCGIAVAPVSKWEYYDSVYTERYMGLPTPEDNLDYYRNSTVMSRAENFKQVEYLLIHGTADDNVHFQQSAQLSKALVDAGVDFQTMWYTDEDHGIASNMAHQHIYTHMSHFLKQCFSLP
# Purified recombinant human CD26 (rhDipeptidyl peptidase IV; Creative BioMart; CAT #DPP4-116H), sequence (P27487 29-766 limits assumed): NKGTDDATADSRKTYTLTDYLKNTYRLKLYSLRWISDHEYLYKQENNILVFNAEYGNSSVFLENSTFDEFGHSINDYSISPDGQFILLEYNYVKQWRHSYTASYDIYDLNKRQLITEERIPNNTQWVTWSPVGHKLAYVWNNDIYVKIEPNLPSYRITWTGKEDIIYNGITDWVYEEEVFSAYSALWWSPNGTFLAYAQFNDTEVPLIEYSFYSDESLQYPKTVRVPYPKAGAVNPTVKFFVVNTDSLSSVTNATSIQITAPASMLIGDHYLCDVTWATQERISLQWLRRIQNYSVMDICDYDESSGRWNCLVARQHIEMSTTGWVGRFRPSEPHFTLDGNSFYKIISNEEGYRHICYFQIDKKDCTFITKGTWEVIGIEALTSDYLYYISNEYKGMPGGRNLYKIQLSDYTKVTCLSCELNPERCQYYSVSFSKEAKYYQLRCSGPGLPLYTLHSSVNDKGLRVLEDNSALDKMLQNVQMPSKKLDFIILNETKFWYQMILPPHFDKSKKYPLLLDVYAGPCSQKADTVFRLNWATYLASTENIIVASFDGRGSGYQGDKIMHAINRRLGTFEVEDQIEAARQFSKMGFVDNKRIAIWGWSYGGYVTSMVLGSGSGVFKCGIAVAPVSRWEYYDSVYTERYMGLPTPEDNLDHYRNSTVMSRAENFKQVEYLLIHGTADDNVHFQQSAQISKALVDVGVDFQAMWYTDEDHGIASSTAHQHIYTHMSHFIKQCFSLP
# T3 sequence (P27487 29-766 limits assumed): as above
# T1 sequence (peptide, as listed by the source): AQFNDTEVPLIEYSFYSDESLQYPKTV
# T2 sequence (P22411 38-766 limits assumed): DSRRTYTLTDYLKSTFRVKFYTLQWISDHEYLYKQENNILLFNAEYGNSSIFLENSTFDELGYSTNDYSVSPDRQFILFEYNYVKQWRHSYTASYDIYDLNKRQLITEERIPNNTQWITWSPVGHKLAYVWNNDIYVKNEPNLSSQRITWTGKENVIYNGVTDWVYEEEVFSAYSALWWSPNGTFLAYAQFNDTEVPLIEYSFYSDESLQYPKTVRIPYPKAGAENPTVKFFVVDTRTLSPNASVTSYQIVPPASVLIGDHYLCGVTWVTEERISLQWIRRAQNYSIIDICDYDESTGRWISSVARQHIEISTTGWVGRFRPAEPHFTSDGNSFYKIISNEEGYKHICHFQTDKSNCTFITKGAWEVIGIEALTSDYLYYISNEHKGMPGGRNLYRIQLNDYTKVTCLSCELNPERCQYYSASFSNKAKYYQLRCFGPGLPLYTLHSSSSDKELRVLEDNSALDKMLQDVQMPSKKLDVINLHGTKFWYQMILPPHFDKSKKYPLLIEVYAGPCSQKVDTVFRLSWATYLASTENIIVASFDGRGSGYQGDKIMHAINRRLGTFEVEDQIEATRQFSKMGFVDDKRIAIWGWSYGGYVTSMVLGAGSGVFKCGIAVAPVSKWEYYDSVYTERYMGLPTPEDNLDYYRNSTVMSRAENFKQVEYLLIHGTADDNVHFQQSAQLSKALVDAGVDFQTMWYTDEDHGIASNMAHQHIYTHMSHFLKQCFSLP
binder,measurement,setting,value
B1,binding result,[1],no binding
same,Kd,[2],5.02 nM
same,koff,[2],0.000132 s⁻¹
same,kon,[2],26300 M⁻¹ s⁻¹
same,binding result,[3],no binding
same,koff,[4],2.8e-05 s⁻¹
same,binding result,[5],no binding
